Laboratory results published in a protein production outcome set (Wang et al. 2014).

experiment: label from the status in PepcDB records

For “MSSSGTSITCEVGLQLIVPDRAPVPLVARLDYSVDDPYAIRAAFHVGDDEPVEWIFARELLTVGIIRETGEGDVRIWPSQDGKERMVNIALSSPFGQARFHAQVAPLSEFLHRTYELVPAGQESDYIDIDAEIAEHLS”, which protein production is on record?
Its protein production is “not failed”.

For “MSSSKKPSQQPSQINLSAEIGQFISLNQEAFAELLTFIDFAEKFTLGLVEVNFPPDVDLLIAALQNNPDCENIQFFILKCVDANLRFLRDEIIKRLSEIELESNKKLVLIVRGLENAIGVFGEYPPVLQDLNFVRDAYKRTVPHPILFILPDYAITRLAKFAPDFWAWRSGIFRFKTPAITKENAINQVKNSEILDRIEPPEKQERIDLLHRLLMEEKPTGQQVTDGNLRSYSNILHQLGQAYLSHIKPEKAREYLEEAERISENLQDELFQAEVINTLGDTYSLQRQFNLGIKYYEKSLLIARRLENRLSEINALFKLGNAYLDLRQFSQAAKFYQQCLDIEQEIGDRYSQASTYHELGRVAQNLREWEQAKTYYQQALDITIEFGDRYNQASTYHQLGMVAQKLRKWEQAKTYYQQALDITIEFGDRYNQARIYHQLAIVAQNLREWQQAKTYYQQALDLKIEFGDRYNQASTYHQLGMVAQNLREWEQAKTYYQQALDITIEFGDRYSQASTYHQLGIVAQNLREWEQAKTYYQQALDLKIEFGDRYSQASTYGQLGTLAEAQENYVEARLNLQTALEIYVEYKDEHWAGIARKILDELPE”, which protein production is on record?
Its protein production is “failed”.

Which protein production does the source give for “MSSTAPASQSTAEALEATASLPQAAVHDHASIMRVIGGIVLCILLAALDQTVVIPAVPAIANDLNGFGHLSWIVTAYLIVSTVTTPLYGKLSDSFGRRRLLMVAISLFILASVACALAQTLPQLILFRALQGLGGGGLMSLAQAAIADVVAPRERGRYQGYLATVWAISSIAGPLVGGWVSDHMSWRWLFWINVPLGLLAMTMCYRGLAHLKPRGGRPQVDWLGALLLAVAIVAFLLAMSWGGEAFAWISPEMAALLAISLVAVLLLAWQERRAADPMLPPRLFRNRAYVMGVGASALAALNIFLCIFALPLHFQLVRDADASMSGLLVVPFLLATVAGNFVVAWLAPRLGRMRVILTIGFVAAAVGLVSLAAVTVAVPTFFVLLAMTIGGIGLGMAMVGTLISVQNALERRDMGAGTGALLVLRSLGSSIGGALAGTLLAMEFRDALARAGVTQALDLGALRHGSEALAHLSPAVRHVLAGGVESGFHLIFAAGAVATIIALLIVRRMPDLELRSSVTEHAAKIHME” here?
The protein production was “failed”.

For “MSSTSKIHAKITGPIVMIGFGSIGKGALPLIERHFEYDKKRFVIIDPHEDGELAKKHGVRFIKQAVTKDNYRELLVPLLTEGGGQGFCVNLSVDTGSVDLMTMCREIGALYIDTVVEPWLGFYFDKNAGPEKRSNYALRETLLAAKAKNPGGTTAVSTCGANPGMVSWFVKQALLDIARDTGLEFNEPKSREGWGQLAQKLGVKGIHIAERDTQRAKTPKPMNVFVNTWSVEGFVSEGLQPAELGWGTHEKWIPDNGRKHTEGCQAAIYLLQPGANTRVRTWCPTPGPQYGFLVTHNESISIADYFTVRDGQNVVYRPTCHYAYHPANDAVLSLHEMFGAEGKMQPKWHILDENEIVDGIDELGVLVYGHAKNAYWYGSQLSIEETREICPYQNATGMQVSSAVLAGMVWALENPEAGIVEADEMDFRRCLEVQKPYLGPVKGYYTDWTPLTDRPGLFPEDIDSSDPWQFKNVLVR”, which protein production is on record?
Its protein production is “failed”.

For “MSSVERYLSQLVKTEPQLETLKELYIGKKWHQLTEELLKLIHSGQVNRINLVELYDSFIREFESSLNPLALVRILVGIARKNYRDLNKALEFVDYATNSKAFISADEEASLFLKSETARLKLEGGNLSGVKQILEEVGVAMESTRDLDTVVHSSYHRVCAQYYKAVGPATKYYSSALLFFQYAPLDSFTVEERVHWAYDLGVASIVAETIFNFGEILEYDIMQSLKSEKLQWLLELLEAFKYGSIEKFNQVSNDHMSYYFVL”, which protein production is on record?
The protein production was “failed”.

Which protein production does the source give for “MSSVFPKVAVLLAAYNGMAWIEAQLDSILKQANVCVSVFISVDTSSDGTEAWCADYAQHHVNITLLPPAGQFGGASRNFFRLIQDVDFSSFDYVAFSDQDDIWYQDKLERALSTLMSGNHDAYSSNVVAFWPDGQRILLDKAQPQVQWDHLFEAAGPGCTYVMNRPLADAFKSSLIAQWDVAQNVSLHDWYCYAFARSHGFRWFIDPAPGMDYRQHANNQVGANTGLASLITRLKKIADGWWAGQVLLIGRLTGGSETLFAGKITGTRWMFLRLAFMAGRCRRRPRDKIFFIIACLAAMLNTPEQRNNR” here?
Its protein production is “failed”.

With “MSSVKDTMTTQVATVSPNQTIQEAASLMKQHNVGAIPVVEQGVLKGMLTDRDIALRTTAQGRDGQTPVSEVMSTELVSGNPNMSLEDASQLMAQHQIRRLPIVDQNNLVGIVALGDLAVNQMSNESAGSALTNISHQNIH” as the sequence, how does the protein production read?
Its protein production is “failed”.

For “MSTAMYHLRVPQTEEELERYYQFRWEMLRKPLHQPKGSERDGWDALAHHQMVVDEEGNLVAVGRLYINADNEASIRFMAVHPSVQDKGLGTLMAMTLESVARQEGVKRVTCSAREDAVEFFAKLGFVNQGEITTPTTTPIRHFLMIKPVASLDDILHRGDWCGQLQQAWYEHIPLSEKMGVRIQQYTGQKFITTMPETGNQNPHHTVFAGSLFSLATLTGWGLIWLMLRERHLGGTIILADAHIRYSKPISGKPNAVADLGSLSGDLDRLARGKKARVQLQVELLGGETAGAIFEGIYIVLPLEHHHHHH”, which protein production is on record?
Its protein production is “failed”.

With “MSTCTLRFKNDWLKIFTCPVPSSDFLSFVGVATIDAPQHAVLSLLYDIESATEWVWKTREMRVLQELADDNEGRVVYQVVSAPWPVSDREIISRSTAYKDPETGEVFIKIESLPDFIPETSNCVRVRKLEGAWNILPLSENSCRVVFRLHIEPAGEIPSWLANIAVIDTPYHTLNNMRDMVKREKYKNPLEHHHHHH” as the sequence, how does the protein production read?
The protein production was “failed”.

With “MSTDEERIYSIALTQIPGVGHIGAKRLVDGMGSATDVFRYRTELPDRLPGVNRAVVAALDSPQALKRAEQEYEFARNNRISCFTLADEDYPSRLRECDDAPVVLFFKGKANLNALHIINMVGTRNATDYGKHICVSFLQELQMLCPDVLVVSGLAYGIDINAHRSALSVELPTVGVLAHGLDRIYPSLHRKTAIDMLRQGGLLTEFLSGTNPDKHNFISRNRIVAGISDATIVVESAAKGGSLITADIAGSYHRDCFAFPGRVTDEYSKGCNQLIQDNKAVLLESASDFVKTMGWDSDLKSVKPETVQRNLFPDLSAEELRIVDILGKLGDLQINALMVQADIPINKISAILFELEMKGVIRVLAGGVYQLLR” as the sequence, how does the protein production read?
The protein production was “failed”.

Which protein production does the source give for “MSTDLAEQPFKFDDVFMQYYPCIYNFIRWLIQDEDCAQDLAQETFLRAFVNLGTRSEHNLSPWLHTIARNLCHDYWRKNKRRGGRELLLQDAFECEDESSKPLAAIENKETAKQIYKILNLLKSEQRTALLLREIEGLSYDDAARVMGISVSAYTSLLNRARNKFIKLIMTPYTKINKGLFTPKEYTVLYRWFGIDAWPEDPEQEIVHKAKHYFDNSALSFDEFRNSLYPFHLDQAILNRVLNKDPQIIGDFGSGTGQFTLKAASSVNLEKTYAFDISPKMVDFSQQRFKREGLRHIQCLPADLNSIPLESETLDIGYCLVVLHHLYDPGKAIKEMTRTLKPGGQLIIGDFGSHNYNLFTKNNKDLWSGFSPDQMTKWFNEAGLENIDIREEKDCIFKSTTQAGELVKIPLLMSSGIKRA” here?
The protein production was “failed”.

With “MSTDSDTTPDTEEAREQLIDLAADFYDQFADGEVPTMTIPTRTKSNIVFDEDEQVWVYGDRNSTRSAKTISGAEKILKAVYTIDFLSQQLEEDRSSTLRELYYLSESWDLDEAQFNTQDESNNLIEDLEIVSDVKREDFHMRPEESGAKVMGPLLLREQTNRGDREIHCQDDVGQGGYQIPNNPDTIEFLDNDAKFVLCVETGGMRDRLVENGFDDEYDALVVHLGGQPARATRRLIKRLHDELDLPVTVFTDGDPWSYRIFGSVSYGSIKSAHLSEYLATPEAQFIGIRPEDIVEYELPTDPLSDSDVNALESELEDPRFQTDFWEEQIELQLDINKKAEQQALASRGLDFVTETYLPERLDEMGIL” as the sequence, how does the protein production read?
Its protein production is “failed”.

With “MSTDSIVKASNWRLVEVGRVVLIKKGQSAGKLAAIVEIIDQKKVLIDGPKAGVPRQAINLGQVVLTPLTFALPRGARTATVSKKWAAAAVCEKWAASSWAKKIAQRERRAALTDFERFQVMVLRKQKRYTVKKALAKA” as the sequence, how does the protein production read?
The protein production was “failed”.
